Experimental data as given in paper PMC5923229.

Columns and labels:
[1] = biological target: H46R/H48Q SOD1 artificial copper site mutant (UniProt P00441); experiment: native MS; nanoESI of SOD1 at different protein concentrations in 200 mM NH4OAc (pH 6.8), gentle conditions; monomer and dimer signal compared; dimer to monomers
[2] = biological target: H46R/H48Q SOD1 with ebselen conjugated at Cys111 (UniProt P00441); experiment: as above

Row | Substance | Kd [1] | Kd [2]
1 | H46R/H48Q SOD1 artificial copper site mutant (from UniProt P00441 2-154) (enzyme) | 5300 nM | 
2 | H46R/H48Q SOD1 with ebselen conjugated at Cys111 (from UniProt P00441 2-154) (enzyme) |  | 220 nM
